Here are results for 20 molecules from patent publication US10800813 (Bicycle, dated 2020).

Numbered stars: 1 amine (or outer) side, 2 acyl side, 3 side chain; on linkers, the order of the positions; unused ones are H or OH. Bridge positions count the residues as written; N and C are the ends. Ends that are not written are not given here. TBMB = c1c(C[*:1])cc(C[*:3])cc1C[*:2]

T1 sequence (P03952 20-638 limits assumed): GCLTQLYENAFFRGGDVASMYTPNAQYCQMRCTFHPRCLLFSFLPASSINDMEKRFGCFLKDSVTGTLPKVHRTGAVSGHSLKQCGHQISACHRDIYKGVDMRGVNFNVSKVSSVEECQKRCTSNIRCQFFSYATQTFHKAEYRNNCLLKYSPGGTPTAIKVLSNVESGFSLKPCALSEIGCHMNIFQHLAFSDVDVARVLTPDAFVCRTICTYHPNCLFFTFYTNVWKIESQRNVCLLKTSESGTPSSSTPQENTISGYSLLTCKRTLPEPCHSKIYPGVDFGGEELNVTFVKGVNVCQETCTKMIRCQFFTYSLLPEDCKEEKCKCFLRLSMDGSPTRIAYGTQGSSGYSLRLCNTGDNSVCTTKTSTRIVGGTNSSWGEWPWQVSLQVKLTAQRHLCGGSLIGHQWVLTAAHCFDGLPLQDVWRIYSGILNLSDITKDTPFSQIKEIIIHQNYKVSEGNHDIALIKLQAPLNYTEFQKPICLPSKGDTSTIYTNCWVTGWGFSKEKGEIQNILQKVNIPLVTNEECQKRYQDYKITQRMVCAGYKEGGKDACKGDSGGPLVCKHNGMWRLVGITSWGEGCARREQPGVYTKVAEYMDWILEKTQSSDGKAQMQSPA

This test has as its target T1, biotinylated human plasma Kallikrein (human, UniProt P03952 20-638, biotinylated).
T1 construct: also called Biotinylated hPK
Kind of test: phage binding assay, signal:background. The protocol: Library transformant colonies, or selection output colonies, were picked and grown as individual cultures in 2TY broth containing selective antibiotic. The picked colonies were DNA-sequenced using a QIAgen PyroMark Q96 DNA sequencer to reveal the amino-acid substitution present in each clone, and were assayed for human plasma Kallikrein binding as follows. The phage-containing supernatant was harvested from the culture and phage were cyclised with tris bromomethyl benzene(TBMB) based on the methods of Heinis et al (Nature Chemical Biology vol. 5 pp 502-507 (2009)). The purified phage from this process were assayed for binding to biotinylated human plasma Kallikrein using a homogeneous plate-based binding assay; assay read-out measured on a BMG Labtech Pherastar FS plate reader. The quantitative binding data from duplicate assay samples was averaged (mean) and expressed as signal:background. […] The assay data was correlated with the peptide sequences.
Selections against human plasma Kallikrein were performed with this library in order to study the non-WPAR (SEQ ID NO: 18) determinants of Kallikrein binding, and to isolate the optimal WPAR (SEQ ID NO: 18)-containing peptide sequence.
Consider CNWPARCTHQDLC (linker 1-7-13 via TBMB) [SEQ ID NO 115], for which the Binding assay signal amounted to 116. The same measure for CAWPARCTHADLC (linker 1-7-13 via TBMB (inferred)) [SEQ ID NO 130]: 79. CSWPARCLHTDLC (linker 1-7-13 via TBMB (inferred)) [SEQ ID NO 126] displayed a Binding assay signal of 83. CQWPARCLHTDLC (linker 1-7-13 via TBMB (inferred)) [SEQ ID NO 121] registered a Binding assay signal of 91. The molecule CTWPARCTHTDLC (linker 1-7-13 via TBMB (inferred)) [SEQ ID NO 123] gave a Binding assay signal of 88. The same measure for CHWPARCTHQELC (linker 1-7-13 via TBMB (inferred)) [SEQ ID NO 124]: 85. CSWPARCTHADLC (linker 1-7-13 via TBMB) [SEQ ID NO 118]: the Binding assay signal was found to be 100. With CLWPARCTHADLC (linker 1-7-13 via TBMB (inferred)) [SEQ ID NO 133], the Binding assay signal is 74.

In turn, CAWPARCTHTDLC (linker 1-7-13 via TBMB (inferred)) [SEQ ID NO 120] came in with a Binding assay signal of 92. Molecule CMWPARCMHQDLC (linker 1-7-13 via TBMB (inferred)) [SEQ ID NO 129] displayed a Binding assay signal of 79. The molecule CHWPARCTHQDLC (linker 1-7-13 via TBMB) [SEQ ID NO 116] had a Binding assay signal of 110. For the molecule CAWPARCTHVDLC (linker 1-7-13 via TBMB (inferred)) [SEQ ID NO 127], the Binding assay signal worked out at 82.

CLWPARCTHQDLC (linker 1-7-13 via TBMB (inferred)) [SEQ ID NO 122]: the Binding assay signal turned out to be 90. Consider CAWPARCTHTDFC (linker 1-7-13 via TBMB (inferred)) [SEQ ID NO 128], for which the Binding assay signal stood at 80.

CSWPARCTHSHLC (linker 1-7-13 via TBMB (inferred)) [SEQ ID NO 137] showed a Binding assay signal of 72.

Turning to CQWPARCTHSDLC (linker 1-7-13 via TBMB (inferred)) [SEQ ID NO 132], the Binding assay signal was determined as 74. To CSWPARCTHDDLC (linker 1-7-13 via TBMB (inferred)) [SEQ ID NO 119] belongs 93; to CAWPARCLHDDLC (linker 1-7-13 via TBMB (inferred)) [SEQ ID NO 125], 84. CRWPARCTHQDLC (linker 1-7-13 via TBMB (inferred)) [SEQ ID NO 134] showed a Binding assay signal of 73. With CPWPARCTHQDLC (linker 1-7-13 via TBMB) [SEQ ID NO 117], the Binding assay signal came to 107.
